The target in experiment [1] is T1, human IL-23R expressed on the cell surface of stably transfected iLite and HEK cell lines (human, UniProt Q5VWK5 24-629).
T1 construct: whole, on cells; Same receptor on two transfected cell lines; the cell line is named under assay; also called human IL-23R iLite cells; human IL-23R HEK cells
T1 sequence (looked up): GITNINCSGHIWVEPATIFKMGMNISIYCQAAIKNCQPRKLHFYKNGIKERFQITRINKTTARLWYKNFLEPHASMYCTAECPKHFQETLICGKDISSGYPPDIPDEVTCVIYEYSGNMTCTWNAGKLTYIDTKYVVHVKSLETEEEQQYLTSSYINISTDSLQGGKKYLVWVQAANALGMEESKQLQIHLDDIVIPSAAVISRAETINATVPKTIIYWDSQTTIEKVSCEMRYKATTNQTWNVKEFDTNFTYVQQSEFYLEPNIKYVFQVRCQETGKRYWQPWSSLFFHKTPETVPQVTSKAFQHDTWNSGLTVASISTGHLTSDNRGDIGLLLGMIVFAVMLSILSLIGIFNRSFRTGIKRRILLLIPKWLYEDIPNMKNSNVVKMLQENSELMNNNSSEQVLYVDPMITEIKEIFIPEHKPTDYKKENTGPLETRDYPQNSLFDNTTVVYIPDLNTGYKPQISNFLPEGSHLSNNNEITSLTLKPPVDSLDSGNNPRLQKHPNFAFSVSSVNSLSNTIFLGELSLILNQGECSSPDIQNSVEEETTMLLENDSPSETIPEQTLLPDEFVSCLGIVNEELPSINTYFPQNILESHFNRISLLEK
Briefly: flow cytometry on human IL-23R HEK cells, Expt D (8-point, 96well). Here is the method: HEK-IL-23R cell concentration response mAb binding (8-point, 96-well assay). […] HEK-IL-23R and HEK-parental cells (12.5 μL of each, 120000 cells total) were plated in 2× replicate on 96-well V-bottom plates (Corning, Cat #3357) into 37° C. warmed Assay medium containing serially diluted IL-23R mAbs to a final volume of 150 μL. IL-23R mAbs were allowed to bind to cells for 30 minutes, at 37° C. […] Cells were next washed twice in ice-cold stain buffer, then resuspended in a final volume of 30 μL with Sytox Green viability dye (ThermoFisher, Cat #S7020). Plates were kept on ice until run for analysis on the iQue. All washes were performed by centrifugation (800 rcf, 3 minutes) followed by flick decantation to remove supernatants. Cell-binding to HEK-IL-23R cells was measured with FlowJo, by gating for single, viable cells and determining the geometric mean fluorescence intensity (MFI) for the 647 detection antibody. Geometric mean fluorescence intensities were plotted over log mAb concentrations fitted with a dose response curve with variable slope using GraphPad Prism.

For experiment [2], the target named is T1, human IL-23R expressed on the cell …. Briefly: flow cytometry on human IL-23R HEK cells, Expt E (11-point, 384well). The procedure: HEK-IL-23R cell concentration response mAb binding (11-point, 384-well assay). […] IL-23R mAbs were allowed to bind to cells for 30 minutes, at 37° C. […] Cells were next washed twice in ice-cold stain buffer, then resuspended in a final volume of 10 μL with Sytox Green viability dye (ThermoFisher, Cat #S7020). Plates were kept on ice until run for analysis on the iQue. All washes were performed by centrifugation (800 rcf, 3 minutes) followed by automated aspiration to remove supernatants with plate washers. Cell-binding to HEK-IL-23R cells was measured with FlowJo, by gating for single, viable cells and determining the geometric mean fluorescence intensity (MFI) for the 647 detection antibody. Geometric mean fluorescence intensities were plotted over log mAb concentrations fitted with a dose response curve with variable slope using GraphPad Prism.

Experimental findings from patent US20250179196A1 (Janssen / Centocor, published 2025) are described below.

Substitutions are numbered along the chain they refer to. Bounds are passed on as bounds.

B1: I23RB47 (antibody, mouse IgG2a, kappa, V domains shown)
VH: QVQLKESGPGLVAPSQSLSITCTVSGFSLTNYDIHWVRQSPGKGLEWLGVIWSDGRTDYKGAFISRLSISKDNSKSQVFFKMNSLQADDTAIYYCARNNYYRYGRNTMDYWGQGTSVTVSS
VL: DIVLTQSPASQSASLGESVTITCLASQTIGSWLAWYQQKPGKSPQLLIYAATRLADGVPSRFSGSGSGTKFSFKISSLQAEDFVFYYCHQLYSIPLTFGGGTKLEMKR
notes: immunization; mouse IgG2a/kappa
As a reminder, the EC50 is the concentration giving half of the maximal effect. Read a high EC50 as lower potency in that assay. For B1, the response in experiment [1] was half-maximal at 0.2 nM (EC50). Moreover, in experiment [2], it took 4.1 nM to reach a half-maximal effect (EC50) and the “MFI (6.4 nM)” value came to 364000 MFI.

B2: I23RB83 (antibody, mouse IgG2a, kappa, V domains shown)
VH: DVQLQESGPGLVAPSQSLSITCTVSGFSLTNYDVHWVRQSPGKGLEWLGVIWSDGSTDYNAAFISRLSFSKDNSKRQVFFKMNSLQPDDTAIYYCARNNYYRYGRNPMDYWGQGTTVTVSS
VL: B1 VL with V3Q, L4M, R53S, F85S, H89Q, I94S, M106I
notes: as for B1
As for B2, a half-maximal response in experiment [1] (EC50) required 0.7 nM. Also, in experiment [2], the EC50 came out at 31.5 nM and the “MFI (6.4 nM)” value turned out to be 121000 MFI.

B3: I23RB73 (antibody, mouse IgG2a, kappa, V domains shown)
VH: EVQLQQSGAELVKPGASVKISCKASGYTFTDHAIHWVKQRPEQGLEWIGYISLGNGDIKYSEKFRGKATLTADKTSNTAYMQLNSLTSEDSAVYFCKRSRVLRWTTYWYFDVWGAGTSVTVSS
VL: DIVMTQSHKFMSTSVGDRVSITCKASQDVSTAVAWYQQKPGQSPKLLIYWASTRLTGVPDRFTGSGSGTDYTLTISSVQAEDLALYYCQQYYNTPLTFGAGTKLELKR
notes: as for B1
Regarding B3, a half-maximal effect in experiment [1] (EC50) was put at 1.8 nM. In experiment [2], the concentration giving a half-maximal response (EC50) was found to be 11.6 nM and the “MFI (6.4 nM)” value is 158000 MFI.

B4: I23RB82 (antibody, mouse IgG2a, kappa, V domains shown)
VH: QVQLKESGPGLVAPSQSLSITCTVSGFSLTNYALHWFRQSPGKGLEWLGVIWSDGSTDYNSPFISRLSISKDNSKSQVFFKMNSLQADDTAIYYCARSRSNYGRWYFDVWGAGTTLTVSS
VL: QIVLSQSHKFMSTSVGDRVSITCKASQDVSTAVAWYQQKPGQSPKLLIYSAFYRYTGVPDRFTGSGSGTDFTFTISSVQAEDLAVYYCQQHYSTPYTFGGGTKLEIKR
notes: as for B1
With B4, the EC50 in experiment [1] was 0.6 nM. For the same molecule, in experiment [2], the EC50 worked out at 9.8 nM and the “MFI (6.4 nM)” value stood at 181000 MFI.

B5: I23RB81 (antibody, mouse IgG2a, kappa, V domains shown)
VH: DVQLQESGPGLVAPSQSLSITCTVSGFSLTSYAINWVRQPPGKGLEWLGVIWTGGGTNYNSALKSRLSISKDNSKSQLFLKMNSLQTDDTARYYCARNRDYSNYRWYFDVWGAGTSVTVSS
VL: B4 VL with Q1D, L4M, S5T, T22I, F52S, Y96L, G100A, K103R
notes: as for B1
In experiment [1], B5 had an EC50 of 0.9 nM. Moreover, in experiment [2], a half-maximal response (EC50) required 7.2 nM and the “MFI (6.4 nM)” value came to 181000 MFI.

B6: I23RB71 (antibody, mouse IgG2a, kappa, V domains shown)
VH: DVQLQESGPDLVKPSQSLSLTCTVTDYSITRGYNWHWIRQFPGNKLEWMGYIHYSGSTNYNPSLKSRISITRDTSKNQFFLQLNSVTTEDTATYYCARQYGLKAMDYWGQGTSVTVSS
VL: B4 VL with Q1D, L4M, S5T, S30I, F52S, Y87F, Y92F, S93G, G100S, I106M
notes: as for B1
Consider B6, for which the EC50 in experiment [1] is ~6.7 nM; in experiment [2] it was 3.4 nM. Further, in experiment [2], the “MFI (6.4 nM)” value was determined as 110000 MFI.

B7: I23RB93 (antibody, mouse IgG2a, kappa, V domains shown)
VH: QVQLKESGPGLVQPSQSLSITCTVSGFSLTSYGVHWVRQSPGKGLEWLGVIWSGVSTDYNAAFISRLSISKDNSKSQVFFKMNSLQADDTAIYYCARSRGSYYFDYWGQGTTLTVSS
VL: DIKMTQSPATLSVTPGDSVSLFCRASQSISNNLHWYQQKSHESPRLLIKYASQSISGIPSRFSGSGSGTDFTLSINSVETEDFGMYFCQQSNSWPLTFGGGTKLEIKR
notes: as for B1
Molecule B7 registered an EC50 in experiment [1] of 0.5 nM. Besides, in experiment [2], the EC50 amounted to 8.9 nM and the “MFI (6.4 nM)” value was 193000 MFI.

B8: I23RB60 (antibody, mouse IgG2a, kappa, V domains shown)
VH: DVQLQESGPELVKPGDSVKMSCEASGYTFTDYYIDWVKQSHGKSLEWIGYIYPNNGGISFNQKFEGKATLTVDKSSSTAYMELHSLTSEDSAVYYCAREKLRGRDYWGQGTTLTVSS
VL: DIVMTQSTSSLSASLGDRVTISCRASQDIRNNLNWYQQKPDGTVKLLIFYSSRLHSGVPSRFSGSGSGTDYSLTISNLEQEDIATYFCQQGHTLPWTFGAGTKLELKR
notes: as for B1
In the case of B8, in experiment [1], the midpoint of the response, the EC50, lay at 0.6 nM. Also, in experiment [2], the EC50 was 27.7 nM and the “MFI (6.4 nM)” value worked out at 93700 MFI.

B9: I23RB77 (antibody, mouse IgG2a, kappa, V domains shown)
VH: DVQLQESGPGLVAPSQSLSITCTVSGFSLSRYSVHWVRQPPGKGLEWLGMIWGSGSTDYNSALKSRLSINKDNSKSQVFLKMNSLQTDDTAMYYCARVYYGGSPYAMDYWGQGTTVTVSS
VL: DIVMTQSPASLALSLGQRATISCRASESVDSYGNSFMHWYQQKPGQPPKLLIYLASNLESGVPARFSGSGSRTDFTLTIDPVEADDAAIYYCQQNNEEPNTFGAGTKLEMKR
notes: as for B1
Consider B9, for which the EC50 in experiment [1] is 0.2 nM; in experiment [2], 4.8 nM. Further, the “MFI (6.4 nM)” value in experiment [2] amounted to 184000 MFI.

B10: I23RB74 (antibody, mouse IgG2a, kappa, V domains shown)
VH: DVQLQESGPGLVKPSQSLSLTCSVTGYSITSGYYWNWIRQFPGNKLEWMGYISYDGSFNYNPSLKNRLSITRDTSMNQFFLKLNSVTSEDTATYYCARAEIYYDYDGDFDYWGQGTTLTVSS
VL: DIVLTQSPASLAVSLGQRATISCRASKSVSTSGSNFLHWYQQKPGQPPKLLIYFASNLESGVPARFSGSGSGTDFTLNIHPVEEEDAATYYCQHSRELPHTFGAGTKLELKR
notes: as for B1
In experiment [1], B10 displayed an EC50 of 0.3 nM. Besides, in experiment [2], the EC50 was found to be 13 nM and the “MFI (6.4 nM)” value stood at 185000 MFI.

B11: I23RB61 (antibody, mouse IgG2a, kappa, V domains shown)
VH: DVQLQESGAELVKPGASVKLSCKSFDYTFTSFDINWMKQRPGQGLEWIGWIFPGSGTTNYNEKFKGKATLTADKSSSTAYMHLTSLTSEDSAVYFCARRLTGTRYFDVWGTGTTLTVSS
VL: DIQMTQSHKFLSTSVGDRITITCKASQDVITAVAWYQQKSGQSPKLLIYWASTRHTGVPDRFTGSGSGTDYTLTISNVQAEDLALYYCQQHYTTPPTFGAGTKLELKR
notes: as for B1
For the molecule B11, the EC50 in experiment [1] is 0.6 nM; in experiment [2], > 50 nM. The “MFI (6.4 nM)” value in experiment [2] stood at 118000 MFI.

B12: I23RB86 (antibody, mouse IgG2a, kappa, V domains shown)
VH: EVQLQQSGAELVKPGASVKLSCKASGYTFTSYWLHWVKQRPGQGLEWIGEIDPSDSYTYYNQKFKGKATLTVDKSSSTAYMQLSSLTSEDSAVYYCARSPYDYDWGAYWGQGTSVTVSS
VL: DIVMTQSPSSMSVSLGDTVSITCHASQGISSNIGWLQQKPGKSFKGLIYHGTNLEDEVPSRFSGSGSGADYSLTIGSLESEDFADYYCVQYAQFPWTFGAGTKLEMKR
notes: as for B1
Regarding B12, the concentration for a half-maximal effect (EC50) in experiment [1] is 1.2 nM. In addition, in experiment [2], it took 22.8 nM to reach a half-maximal effect (EC50) and the “MFI (6.4 nM)” value amounted to 164000 MFI.

B13: I23RB98 (antibody, mouse IgG2a, kappa, V domains shown)
VH: EFQLQQSGPELVKPGASVKMSCKASGYTFTNYYMHWVKQSHGKTIEWIGYIYPNSGDTSYNQKFKGKATLTVDKSSSTAYMELRSLTSEDSAVYTCARFGGFYDAMDYWGQGTTVTVSS
VL: DIVLTQSPAIMSASLGERVTMTCTASSSVSSSYLHWYQQKPGSSPKLWIYSTSNLASGVPARFSGSGSGTSYSLTISSMEAEDAATYYCHQYHRSPFTFGSGTKLEMKR
notes: as for B1
For the molecule B13, the EC50 in experiment [1] stood at 1.9 nM. In addition, in experiment [2], the EC50 was found to be 28.7 nM and the “MFI (6.4 nM)” value stood at 59400 MFI.

B14: I23RB57 (antibody, mouse IgG2a, kappa, V domains shown)
VH: B13 VH with T95N, T114S
VL: B13 VL with L4M, M107I
notes: as for B1
As to B14, the EC50 in experiment [1] was found to be 5 nM. Moreover, in experiment [2], the EC50 was > 50 nM and the “MFI (6.4 nM)” value was 99600 MFI.
